# Measured values published in patent US10556936B2, “Immunogenic proteins and fragments thereof from allergenic mites” (ALK-ABELLÓ A/S, priority 2016, dated 2020).
# Marks after values point to notes of the source that are not given here.
# How the values were obtained:
# [1] = test system: HDM specific T-cell lines from HDM allergic donors; experiment: T cell reactivity of protein: IL-5/IFNg FluoroSPOT or 72 h T cell proliferation in HDM specific T-cell lines (Example 2); type: cell-based, human; conditions: responding donors of tested HDM allergic donors
# Source text: PBMCs from European HDM-allergic individuals were recruited in the Copenhagen region (defined by clinical history of allergy to house dust mite and specific IgE to group 1 and group 2 major allergens from Der p and/or Der f and with measured specific IgE (CAP) >0.7 kU/L towards Der p/f 1 or Der p/f 2. In addition, PBMCs from 10 US HDM-allergic individuals were recruited in San Diego (defined by Der p extract IgE titers greater than 0.35 kUA/L). PBMCs were isolated from whole blood by density gradient centrifugation according to manufacturers' instructions (Ficoll-Hypaque, Amersham Biosciences, Uppsala, Sweden). Der p- and Der f-specific extract IgE titers were determined using the ImmunoCAP system (Thermo Fisher, Uppsala, Sweden). In a separate series of experiments, pooled plasma from 10 European and 10 American HDM atopic individuals from the San Diego region, respectively, was utilized to run 2D immunoblots to elucidate IgE and IgG reactivity towards the proteins, which had at least one peptide with positive T cell response.
# T cells reactivity was determined by establishment of HDM specific T-cell lines according to standard methods. In short, PMBCs from HDM allergic donors were cultured for 2-3 weeks in the presence of house dust mite allergen extract. The responses to proteins having SEQ ID NOs 1-44 were assessed by IL-5/IFNg FluoroSPOT (Mabtech FS-0108-10) according manufacturer protocol, (after 2 weeks) or proliferation in a standard 72 h T cell proliferation assay, as described in Henmar H et al., Clin Exp Immunol 2008; 153(3):316-23. (after 3 weeks). In addition these established T cell lines were used for further characterization and epitope mapping.
# [2] = test system: basophils in whole blood from HDM allergic donors; experiment: Basophil Activation Test (BAT); type: cell-based, human; conditions: responding donors of tested HDM allergic donors; whole blood stimulated 1 h
# How it was run: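 Whole blood from HDM-allergic donors (n=14) was stimulated for 1 h with test proteins across a concentration range, e.g. 1, 10, 100 or 1000 ng/ml. Basophil surface activation markers were measured by flow cytometry, with Der p 1 and Der p 2 tested at the same concentrations as controls.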
Molecule,% T cell responding donors to protein [1],% responding donors in BAT Assay [2]
"13 (protein, listed as Dermatophagoides farinae) KKTKDCDVEKPIRECLKNGLLRYSDGQKINQFPDSIEDLNRACEELKKSETCARNFIDTCTETSYEKRSLDSLLDGIQRVLKRLCRSQSKKEQLLQNVGCANSVVQDTKLCLKNYRMLVFAANKLNDKSKIMRILCCKSRKVAPCIGEAMKSKGNAVCSAKNIDYFREMHQNIKAEMTAVVCSDFERDQCENVEVPAITEAEYKDQNIFNPLRDLYKKVILA",6 of 29,0 of 16
"6 (protein, listed as Dermatophagoides pteronyssinus) MVKAVVVLKGDPNVSGTIFFEQQDNGPVKVTGSVQGLKPGLHGFHVHEFGDNTNGCTSAGAHYNPLNKTHGAPNDEERHVGDLGNIEANDKGVANVVIEDSLISLTGEKSIVGRSLVVHADPDDLGRGGHELSKTTGNAGGRLVCGVIGVTK",0 of 27,1 of 8*
"33 (protein, listed as Dermatophagoides pteronyssinus) IEQVHIALGSNETEIIVTWTEPHKHDDKTSDAVVYYGQAKSSFDQKVKAISEYFKDDKTKYTTYRALLTGLLPGTEYHYRIQMDDLESSIFEFKTLKTGEENWLPRFAIYGDLGYVNEQSLPYLKKDVEQNLFDVIFHIGDFAYDLNDEHGKVGHHFMRSIEPVASKVAYMTCPGNHERHDNFSHYDSRFSMIGDRSQPIHSDKLNKRLNNHFHSMTIGPATIILFSTEYYYYTKYGWQQIEHQYRWLEQELKRANENRQKHPWIIVMGHRPLYCLKMGDDSCDHQTMERKEIRQGIRMHDEGERQYGLEDLFFKYGVDIQFYGHEHFYARLFPIYKYKMYNGTKSKNPYDHPGAPIHITTGSAGNKELHPEFNHLNDWVAEHFYDYGYTRLMFEDKYRIRLQQISDDQHGKVLDEIEIVKSSPQPHWMNVEHH",10 of 27,1 of 8*
"37 (protein, listed as Dermatophagoides pteronyssinus) DTPANCTYEDIKGLWLFEETEPIKDRWEKCPEHQQQREKYSKKIFIRLDFPNVAVDKFGNIGEWTMIYNQGFEVKINYRKYFAFSAYERKSENNVLSYCHKTQPGWSHDVLGNNWACYVGHKVNNWNDDDVSKTTTVGAEKFPVKQHSERELYLQNINVEHILSQKHIDHLNSQQKSWKAIVYPDLQSKSIEHLIQMAGGRKSRIINRPKPLRATEQQKQLARSLPESFDWRNLNGIDYVSPVRDQGKCGSCYTFASMAMLESRIRIQTNNTFKPIFSTQEVVDCSEYSQGCDGGFSYLIAGKYAQDFGVIDESCYPYKGVTGKCQNQQNFNQTNEKCKQRTYTIDYKYVGGYFGACNEEAMQIELVQNGPIAVGFEVYGDFFGYSEGIYSHQPSNESNDQHQQIKAEFNPFEMTNHAVLIVGYGKDKKTGEKYWIVKNSWGKQWGMDGYFWMRRGTDECAIESLAMAATPIPN",4 of 27,0 of 8
"25 (protein, listed as Dermatophagoides pteronyssinus) MSSSSGKKYDFSGKVALVTGSSSGIGAAIALQFAQYGAQVTITGRDAAALESVAKRIEAESGHQPLQIVGNLLDQSLPAKLIDGTISKYGRLDFLVNNAGFSTQHRDIHDEKLMEAFDQVYGLNVRAVVQLSQLAATHLEKSKGNIINISSNLSMMPVHIIYSSSKAALDMITKTMAMEFGKKGVRVNSINPGPVATQFMRSLGMPVTFLKENEEFVKELTLLKFVAQPVEIANLASFLASDDARNMTGSIVVNDTGSLLAPRVDFKKLDEIKKK",3 of 26,1 of 8*
"29 (protein, listed as Dermatophagoides pteronyssinus) MVKIGINGFGRIGRLVLRAAIKKGVEVAAINDPFLDVKYMVYMFKFDSTHGRYQGEVKEEGGLLVVDGQKIQVFQERNPAEIPWGKVGADYVVESTGVFTTIEKAKAHLAGGAKKVIISAPSADAPMYVMGVNHDKYDPKQQIISNASCTTNCLAPLAKVINDKFGIENGLMTTVHAITATQKTVDGPSGKLWRDGRGAGQNIIPASTGAAKAVGKVIPELNGKLTGMALRVPVPDVSVVDLTVTLKNPASYDEIKAAVKAAAESDHWKGILEYTDEEVVSSDFISDTHSSIFDAKAGIALTPTFVKLIAWYDNEFGYSNRVVDLIKYVASK",2 of 27,1 of 8*
